Data published in patent US20230340111A1 (published 2023).
Changes are numbered by the printed parent chain. In names and notes the source's numbering stands.

B1: 131I-labeled untagged A1-N64S (VHH)
VHH: DVQLVESGGGLVQPGGSLRLSCAASESIFSRNHMSWYRQAPGKQRELAAIITSDGSTNYPDSVKGRFTISRDNAKNTVYLQMNSLKPEDTAVYYCNTFGRSVAGFYDYWGQGTQVTVSS
modifications: [131I]SGMIB conjugated to lysine side-chain amine groups
B2: 131I-labeled untagged A1-N64Q (VHH)
VHH: B1 VHH with S56Q
modifications: [131I]SGMIB conjugated to lysine side-chain amine groups
B3: 131I-labeled untagged A1-N64E (VHH)
VHH: B1 VHH with S56E
modifications: [131I]SGMIB conjugated to lysine side-chain amine groups
B4: 131I-labeled untagged A1-D59E (VHH)
VHH: B1 VHH with D54E, S56N
modifications: [131I]SGMIB conjugated to lysine side-chain amine groups
B5: 131I-labeled untagged A2-E90Q (VHH)
VHH: DVQLVESGGGLVQAGGSLRLSCAADEMKFSNYDLAWYRRAPGKQRELAAIITSGGSTNYPDSVKGRFTISRDNAKNTVYLQMNSLKPEDTAVYYCNALRPWPQFSDYWGQGTQVTVSS
modifications: [131I]SGMIB conjugated to lysine side-chain amine groups
B6: 131I-labeled untagged A2-K29Q-E90Q (VHH)
VHH: B5 VHH with K28Q
modifications: [131I]SGMIB conjugated to lysine side-chain amine groups
B7: 131I-labeled untagged A2-M28A-E90Q (VHH)
VHH: B5 VHH with M27A
modifications: [131I]SGMIB conjugated to lysine side-chain amine groups
B8: 131I-labeled untagged VHH A2 (VHH)
VHH: B5 VHH with Q81E
modifications: [131I]SGMIB conjugated to lysine side-chain amine groups
B9: 131I-labeled untagged A2-M28T-E90Q (VHH)
VHH: B5 VHH with M27T
modifications: [131I]SGMIB conjugated to lysine side-chain amine groups
B10: 131I-labeled untagged A2-K29R-E90Q (VHH)
VHH: B5 VHH with K28R
modifications: [131I]SGMIB conjugated to lysine side-chain amine groups
B11: HA-tagged variant of VHH A2 (VHH)
VHH: B5 VHH with D1Q, V5Q, Q81E
notes: Used as VHH-containing bacterial (periplasmic) extract in ELISA; also called A2 HA-tag
B12: untagged N64E variant of VHH A1 (VHH)
VHH: B1 VHH with S56E
notes: also called A1-N64E
B13: untagged N64Q variant of VHH A1 (VHH)
VHH: B1 VHH with S56Q
notes: also called A1-N64Q
B14: untagged N64S variant of VHH A1 (VHH)
VHH: B1 VHH
notes: also called A1-N64S
B15: untagged D59E variant of VHH A1 (VHH)
VHH: B1 VHH with D54E, S56N
notes: also called A1-D59E
B16: untagged E90Q variant of VHH A2 (VHH)
VHH: B5 VHH
notes: also called A2-E90Q
B17: untagged M28T-E90Q variant of VHH A2 (VHH)
VHH: B5 VHH with M27T
notes: also called A2-M28T-E90Q; A2-M28TE90Q
B18: untagged K29R-E90Q variant of VHH A2 (VHH)
VHH: B5 VHH with K28R
notes: also called A2-K29R-E90Q
B19: untagged K29Q-E90Q variant of VHH A2 (VHH)
VHH: B5 VHH with K28Q
notes: also called A2-K29Q-E90Q
B20: untagged M28A-E90Q variant of VHH A2 (VHH)
VHH: B5 VHH with M27A
notes: also called A2-M28A-E90Q
B21: 99mTc-labeled His6-tagged VHH A1 (VHH)
VHH: B1 VHH with S56N
modifications: [99mTc(H2O)3(CO)3] at the His6-tail
notes: also called 99mTc-A1; 99mTc-VHH A1
B22: 99mTc-labeled His6-tagged VHH A5 (VHH)
VHH: DVQLVESGGGLVQAGGSLRLSCGVSGNIFSMNLMGWYRQPPGKEREWVALITKDGSTNYEDSVKGRFTISRDNAKNTVSLQMNSLKPEDTAVYYCNAQDGSGWIRAWGWDWGQGTQVTVSS
modifications: [99mTc(H2O)3(CO)3] at the His6-tail
notes: also called 99mTc-A5
B23: 99mTc-labeled His6-tagged VHH A3 (VHH)
VHH: B22 VHH with I28M, E46D, L50V, E60A, A97V
modifications: [99mTc(H2O)3(CO)3] at the His6-tail
notes: also called 99mTc-A3
B24: 99mTc-labeled His6-tagged VHH A4 (VHH)
VHH: DVQLVESGGGLARAGGSLRLSCAASGRAFSSTYAMGWFRQAPGKEREFVADINWSEGSPMYIDSVKDRFTISRDNARNSLYLQMNSLKSEDTAVYYCAARRFGQGYEYWGQGTQVTVSS
modifications: [99mTc(H2O)3(CO)3] at the His6-tail
notes: also called 99mTc-A4
B25: 99mTc-labeled His6-tagged VHH A2 (VHH)
VHH: B5 VHH with Q81E
modifications: [99mTc(H2O)3(CO)3] at the His6-tail
notes: also called 99mTc-A2; 99mTc-VHH A2

Target: T1, human FOLR1 expressed on SKOV-3 ovarian carcinoma cells (human, UniProt P15328 25-234)
T1 construct: Naturally expressed receptor on SKOV-3 cells; also called human FOLR1pos SKOV-3 cancer cells; human FOLR1-expressing cell line SKOV-3
T1 sequence (P15328 25-234 limits assumed): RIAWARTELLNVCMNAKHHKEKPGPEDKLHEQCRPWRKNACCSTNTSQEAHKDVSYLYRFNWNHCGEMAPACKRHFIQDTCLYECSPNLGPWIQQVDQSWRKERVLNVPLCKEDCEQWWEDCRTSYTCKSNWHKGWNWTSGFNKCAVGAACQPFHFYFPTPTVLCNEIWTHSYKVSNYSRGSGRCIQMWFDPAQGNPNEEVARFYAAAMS
Assay: saturation binding of 131I-labelled untagged VHH on SKOV-3 cells
Protocol: In a first part, their in vitro behaviour was assessed by means of investigating their cellular binding and retention over time. The binding potential of the resulting radioconjugates was assessed to confirm that this was not affected by the introduction of ¹³¹I-SGMIB into the amino acid sequence of the different VHHs. To this, human FOLR1^pos SKOV-3 cancer cells were incubated with serial dilutions with concentrations ranging from 0 to 300 nM of the different ¹³¹I-labelled, His₆ tagged VHHs. A 100-fold excess of the corresponding unlabeled VHH was added in parallel to saturate the human FOLR1 receptors expressed on cancer cells, to assess non-specific binding.
A1 and A2 parental untagged VHH’s and derivatives were radiolabeled with theranostic isotope ¹³¹I, as described in example 3, and subjected to saturation binding studies as described in example 6.

| EC50 [nM] | Binder |
| --- | --- |
| 0.9 | B1 |
| 2.3 | B2 |
| 2.5 | B3 |
| 2.1 | B4 |
| 2.9 | B5 |
| 5.1 | B6 |
| 4.1 | B7 |
| 2.4 | B8 |
| 4.8 | B9 |
| 3.6 | B10 |

Target: T2, human folate receptor gamma (FOLR3), recombinant (human, UniProt P41439 23-245, limits assumed)
T2 construct: extracellular domain; Bought protein; also called human FOLR3
T2 sequence (P41439 23-245 limits assumed): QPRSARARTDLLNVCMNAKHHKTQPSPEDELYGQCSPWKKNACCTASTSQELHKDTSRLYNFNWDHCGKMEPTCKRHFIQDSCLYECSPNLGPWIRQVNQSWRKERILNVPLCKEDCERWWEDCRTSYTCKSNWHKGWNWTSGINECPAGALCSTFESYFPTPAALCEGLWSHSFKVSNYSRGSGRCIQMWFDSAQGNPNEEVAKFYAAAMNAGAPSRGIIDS
Assay: ELISA, coated recombinant protein, HA-tagged VHH in bacterial extract
Protocol: (§1) The day before, 0.1 µg recombinant protein at a concentration of 1 µg/mL in 100 mM NaHCO3, pH 8.2 was coated in a 96-well ELISA plate (Nunc MaxiSorp). Per VHH clone also a blank coated well was foreseen (only buffer). The wells were overcoated with protein-free T20 (PBS) blocking buffer (Pierce). After washing with PBS, pH7.4, 0.05% Tween, VHH-containing bacterial extract was added to every well. Binding of HA-tagged VHHs was detected by using mouse anti-HA.11 epitope tag (clone 16B12, Biolegend) as the primary Ab and goat anti-mouse IgG (whole molecule) alkaline phosphatase conjugate (Sigma-Aldrich) as the secondary Ab, with thorough washing with PBS, pH 7.4, 0.05% Tween in between. Signals were developed using phosphatase substrate (Sigma-Aldrich) in AP blot buffer (100 mM NaCl, 50 mM MgCl2, 100 mM Tris, pH 9.5). The absorbance was determined at 405 nm using an absorbance microplate reader (Molecular Devices). Per clone the ratio was determined between the absorbance in the antigen-coated well versus the well without antigen.

| binding result | Binder |
| --- | --- |
| no binding | B11 |

Target: T3, human folate receptor beta (FOLR2), extracellular domain, recombinant (human, UniProt P14207 17-228, limits assumed)
T3 construct: extracellular domain; Bought protein; also called human FOLR2
T3 sequence (P14207 17-228 limits assumed): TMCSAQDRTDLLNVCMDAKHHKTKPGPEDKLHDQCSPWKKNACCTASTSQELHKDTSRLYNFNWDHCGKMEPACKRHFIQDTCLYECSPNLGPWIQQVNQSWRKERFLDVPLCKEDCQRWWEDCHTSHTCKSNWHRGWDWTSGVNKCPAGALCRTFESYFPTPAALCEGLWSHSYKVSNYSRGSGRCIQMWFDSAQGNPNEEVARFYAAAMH
Assay: as above
Protocol: as §1

| binding result | Binder |
| --- | --- |
| no binding | B11 |

Target: human FOLR1 recombinant protein (extracellular domain of human folate receptor alpha) (human) (UniProt P15328)
Sequence (P15328 25-233): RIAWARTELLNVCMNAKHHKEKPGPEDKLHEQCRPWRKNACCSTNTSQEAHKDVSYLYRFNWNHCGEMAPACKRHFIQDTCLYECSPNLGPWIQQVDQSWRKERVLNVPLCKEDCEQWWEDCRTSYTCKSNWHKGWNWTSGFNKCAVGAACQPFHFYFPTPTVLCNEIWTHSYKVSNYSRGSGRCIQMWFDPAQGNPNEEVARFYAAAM
Assay: ELISA; coated recombinant protein, HA-tagged VHH in bacterial extract, anti-HA detection; A405 antigen well / blank well

| signal-to-background ratio | Binder |
| --- | --- |
| > 20 | B11 |

Target: T2, human folate receptor gamma (FOLR3), …
Assay: as above
Protocol: as §1

| signal-to-background ratio | Binder |
| --- | --- |
| ~1 | B11 |

Target: T3, human folate receptor beta (FOLR2), …
Assay: as above
Protocol: as §1

| signal-to-background ratio | Binder |
| --- | --- |
| ~1 | B11 |

Target: T4, human FOLR1 recombinant protein (extracellular domain of human folate receptor alpha) (human, UniProt P15328 25-233)
T4 construct: Bought recombinant protein (Sino Biological); also called hFOLR1; FR-alpha
T4 sequence (P15328 25-233): as above
Assay: SPR (Biacore T200), single cycle kinetics, human FOLR1 immobilized on CM5, untagged VHH as analyte, 1:1 fit
Protocol: The antigen-binding kinetic parameters of untagged, purified VHH A1 and A2 variants were determined by surface plasmon resonance on immobilized human FOLR1 recombinant protein with a Biacore T200 instrument (GE Healthcare). The human FOLR1 recombinant protein (Sino Biological) was immobilized in 10 mM sodium acetate, pH 5.5 on a CM5 chip (GE Healthcare) via amine coupling chemistry to 250 RU. VHHs were analyzed using single cycle kinetics with a threefold serial dilution in HBS (5 nM-0.062 nM) and an analyte flow rate of 40 µl/min. The association phase took 5× 450 s and the dissociation phase 900 s. Regeneration was done by a single injection of 50 mM glycine-HCl, pH 2.5, 2 M MgCl₂ for 30 s at 30 µl/min, followed by 120 s stabilization. Binding curves were fitted using a ‘1:1 (antigen:analyte)’ binding model in Biacore T200 evaluation software.

| Kd [nM] | koff [s⁻¹] | kon [M⁻¹ s⁻¹] | Binder |
| --- | --- | --- | --- |
| 0.092 | 0.00017 | 1.8e+06 | B12 |
| 0.036 | 8.2e-05 | 2.3e+06 | B13 |
| 0.057 | 0.00014 | 2.5e+06 | B14 |
| 0.083 | 0.00019 | 2.3e+06 | B15 |
| 0.25 | 0.0006 | 2.3e+06 | B16 |
| 0.56 | 0.0013 | 2.3e+06 | B17 |
| 0.29 | 0.00053 | 1.9e+06 | B18 |
| 0.27 | 0.00048 | 1.8e+06 | B19 |
| 0.81 | 0.0016 | 2e+06 | B20 |

Target: T1, human FOLR1 expressed on SKOV-3 ovarian …
Assay: cellular retention on SKOV-3 cells: 10 nM 131I-VHH 1 h at 4 C, then up to 24 h at 37 C; membrane-bound plus internalized fraction
Protocol: The in vitro cellular retention of the different His₆- and untagged ¹³¹I-labeled VHHs was assessed on the same cancer cells. In this particular case, human FOLR1^pos SKOV-3 cancer cells were incubated with 10 nM ¹³¹I-labelled VHHs for 1h at 4° C., after which the unbound fraction was collected. A 100-fold excess of the corresponding unlabeled VHH to assess non-specific binding. Next, the cells were incubated with fresh medium up to 24 h at 37° C., after which the dissociated fraction was collected. Afterwards, the cells were washed with 0.05 M glycine pH 2.8 to collect the membrane-bound fraction. Finally, cells were solubilized with 1 M NaOH at room temperature to collect the internalized fraction. The sum of the membrane-bound and internalized fractions corresponds to the total cell-associated fraction.

| cell-associated fraction of initial bound activity after 24 h [%] | Binder |
| --- | --- |
| ~60 | B8 |

Target: T1, human FOLR1 expressed on SKOV-3 ovarian …
Assay: saturation binding of 99mTc-labelled His6-tagged VHH on SKOV-3 cells (0-300 nM); non-specific binding by 100-fold unlabelled VHH
Protocol: After quality control (> 95%), human FOLR1^pos SKOV-3 cancer cells were incubated with serial dilutions with concentrations ranging from 0 to 300 nM of the different ^99mTc-labelled VHHs. A 100-fold excess of the corresponding unlabeled VHH was added in parallel to saturate the human FOLR1 receptors expressed on cancer cells, to assess non-specific binding.

| EC50 [nM] | Binder |
| --- | --- |
| 1 | B21 |
| 28.6 | B22 |
| 3.3 | B23 |
| 3.8 | B24 |
| 1.1 | B25 |
